For 6 molecules, fold decrease in binding affinity, fold decrease in Kd (against unmutated RCAN1) and Kd results are on record in patent publication US20160038571A1.

By Kd is commonly meant the concentration at which binding is half-saturated.

One assay concerns the target calcineurin (CNA/B) (UniProt Q08209). In words: ITC. In general terms: ITC needs no label: the signal is the heat of the interaction.
The target in assay [1] is pre-formed RCAN1^128-164:calcineurin complex, Q08209. The assay is described as follows: ITC, peptide titrated into the pre-formed RCAN1^128-164:calcineurin complex.

On to “RCAN1 construct with the PxIxIT (SEQ ID NO: 9) motif deleted”, for which the fold decrease in binding affinity with calcineurin (CNA/B) turned out to be 220 fold.
Consider “RCAN1 mutant HLAPP (SEQ ID NO: 16) →AAAAA (SEQ ID NO: 17) (from UniProt P53805 56-252)”, for which, in the assay with calcineurin (CNA/B), the fold decrease in Kd (against unmutated RCAN1) worked out at 2.5 fold.
Consider “RCAN1 mutant PSVVVH (SEQ ID NO: 13) →ASAVAA (SEQ ID NO: 18) (from UniProt P53805 56-252)”, for which, in the assay with calcineurin (CNA/B), the fold decrease in Kd (against unmutated RCAN1) is 220 fold.
For the molecule “RCAN1^89-197 (from UniProt O35847 89-142)”, the dissociation constant (Kd) with calcineurin (CNA/B) was determined as 10 nM.
Same read-out and setting: as for “RCAN1^128-192 (from UniProt P53805 183-247)”, the figure is 300 nM.
Regarding RPKPKIIQTRRPEYT (modifications not checked) [peptide consisting of RCAN1^178-192 that includes the TxxP (SEQ ID NO: 11) site], the Kd in assay [1] was 15000 nM.
